Data reported in patent publication US11390894B2, “Biological processes for the production of aryl sulfates” (CysBio ApS, priority 2014, dated 2022).

Experiments:
[1] = tested on: pHCA; test: Percent conversion of substrate by E. coli cells expressing sulfotransferases; type: cell-based, Escherichia coli; details: 100 μM pHCA, M9 medium, overnight 37° C.
Description: (§1) The concentration of p-courmaric acid (pHCA) and zosteric acid in the supernatant was quantified by high performance (HPLC) and compared to chemical standards. HPLC was done on a Thermo setup using a HS-F5 column and mobile phases: 5 mM ammonium formate pH 4.0 (A) and acetonitrile (B) at 1.5 mL min-1, using a gradient elution starting at 5% B. From 0.5 min after injection to 7 min, the fraction of B increased linearly from 5% to 60%, and between 9.5 min and 9.6 the fraction of B decreased back to 5%, and remaining there until 12 min. pHCA and zosteric acid were quantified by measuring absorbance at 277 nm.
(§2) Different sulfotransferases were examined for their substrate specificities against three substrates. We tested the sulfotransferases mentioned in example 1, as well as additional ones. The genes encoding these were cloned as described in example 1 using the primers shown in the table below from cDNA libraries of the respective organisms, except for the SULT1A1 from rat (Rattus norvegicus) codon-optimized for E. coli (described above). The resulting vectors were transformed into BL21(DE3)pLysS.
(§3) The resulting strains were grown in M9 medium containing either 100 μM pHCA, 95 μM resveratrol or 87 M kaempferol. The cultures were grown overnight at 37° C., 300 rpm. The following day the supernatants were isolated and examined by HPLC as described in example 1.

[2] = tested on: kaempferol; test: as above; type: cell-based, Escherichia coli; details: 87 μM kaempferol, M9 medium, overnight 37° C.
Description: as §1, §2, §3

[3] = tested on: resveratrol; test: as above; type: cell-based, Escherichia coli; details: 95 μM resveratrol, M9 medium, overnight 37° C.
Description: as §1, §2, §3

[4] = tested on: p-coumaric acid; test: Production of zosteric acid in Saccharomyces cerevisiae expressing SULT1A1; type: cell-based; details: strain CEN.PK102-5B, modified Delft medium, 10 mM p-coumaric acid, overnight 30° C., supernatant
Description: as §1
The gene encoding aryl sulfotransferase SULT1A (Example 1) was cloned after a TEF1 promoter into an episomal plasmid with a 2-micron origin of replication as follows. The gene was amplified by PCR using primers CBJP633 and CBJP634. Alternatively, the gene was codon-optimized for E. coli and synthesized by GeneArt and amplified by primers CBJP635 and CBJP636. The TEF1 promoter (Jensen et al., 2014, FEMS Yeast Res 14: 238-248) was amplified by PCR using the primers PTEF1_fw and PTEF1_rv. Plasmid pCfB132 (Jensen et al., supra) was digested by restriction enzymes AsiSI and Nt.Bsml. […]

[5] = tested on: pHCA; test: Production of zosteric acid in E. coli from pHCA through heterologous expression of sulfotransferases; type: cell-based, Escherichia coli; details: culture media; M9 glucose, 0.1 mM IPTG, 0.1 mM pHCA, four days of growth
Description: A range of aryl sulfotransferases including SULT1A1 Rattus norvegicus (SEQ ID NO: 1), SULT1A1 Homo sapiens (SEQ ID NO: 2), SULT1A1 Equus caballus (SEQ ID NO: 3), SULT1A1 Sus scrofa domesticus (SEQ ID NO: 4), SULT1A1 Canis lupus familiaris (SEQ ID NO: 5) and SULT1E1 Gallus gallus domesticus (SEQ ID NO: 6) were expressed in Escherichia coli. […]. The nucleotide sequence of the gene encoding SEQ ID NO: 2 was codon optimized for expression in Escherichia coli (GeneArt, Life Technologies) and amplified by PCR using the primers in Table 1. The pETDuet-1 plasmid was digested with restriction endonucleases Ncol and Sal. The PCR products were then individually cloned into the plasmid pETDuet-1 using the Gibson reaction (New England Biolabs). The resulting plasmids were transformed into BL21(DE3)pLysS (Life Technologies).
The strains were grown in M9 minimal media containing glucose as a carbon source, and 0.1 mM IPTG for induction of gene expression as well as 0.1 mM p-coumaric acid (pHCA). After four days of growth, samples were withdrawn by filtration and analyzed by HPLC.
as §1
Zosteric acid was formed with an aryl sulfotransferase heterologously expressed in a microorganism exemplified by E. coli supplied with the substrate.

Molecule | percent conversion of pHCA [1] | percent conversion of kaempferol [2] | percent conversion of resveratrol [3] | μM ZA (averages and standard deviations of replicate experiments) [4] | Zosteric acid formed [5] | pHCA remaining [5]
SULT1A1 Rattus norvegicus: aryl sulfotransferase SULT1A1 from Rattus norvegicus (SEQ ID NO: 1), expressed in host cells (protein, listed as Rattus norvegicus) MEFSRPPLVHVKGIPLIKYFAETIGPLQNFTAWPDDLLISTYPKSGTTWMSEILDMIYQGGKLEKCGRAPIYARVPFLEFKCPGVPSGLETLEETPAPRLLKTHLPLSLLPQSLLDQKVKVIYIARNAKDVVVSYYNFYNMAKLHPDPGTWDSFLENFMDGEVSYGSWYQHVKEWWELRHTHPVLYLFYEDIKENPKREIKKILEFLGRSLPEETVDSIVHHTSFKKMKENCMTNYTTIPTEIMDHNVSPFMRKGTTGDWKNTFTVAQNERFDAHYAKTMTDCDFKFRCEL | 93% | 95% | 93% | 37.8 ± 5.7 µM | 0.10 mM | 0.02 mM
SULT1A1 Rattus norvegicus (Codon-optimized for E. coli): SULT1A1 from rat expressed from a gene codon-optimized for E. coli (protein, UniProt P17988 1-291, looked up) Sulfotransferase 1A1: MEFSRPPLVHVKGIPLIKYFAETIGPLQNFTAWPDDLLISTYPKSGTTWMSEILDMIYQGGKLEKCGRAPIYARVPFLEFKCPGVPSGLETLEETPAPRLLKTHLPLSLLPQSLLDQKVKVIYIARNAKDVVVSYYNFYNMAKLHPDPGTWDSFLENFMDGEVSYGSWYQHVKEWWELRHTHPVLYLFYEDIKENPKREIKKILEFLGRSLPEETVDSIVHHTSFKKMKENCMTNYTTIPTEIMDHNVSPFMRKGTTGDWKNTFTVAQNERFDAHYAKTMTDCDFKFRCEL | 73% | 38% | 58% | 46.2 ± 3.5 µM |  | 
